Reference: US20090098103A1

What was measured:
Experiment in all cases: cell-based or functional assay
[1] = biological target: FVIIa variant CB597 K197F (human) (UniProt P08709)
[2] = biological target: FVIIa variant CB592 M298Q (human) (UniProt P08709)
[3] = biological target: FVIIa variant CB581 D196R/R290D (human) (UniProt P08709)
[4] = biological target: FVIIa variant CB557 K197D (human) (UniProt P08709)
[5] = biological target: FVIIa variant CB601 D196Y (human) (UniProt P08709)
[6] = biological target: FVIIa variant CB689 K197E/G237V (human) (UniProt P08709)
[7] = biological target: FVIIa variant CB588 D196R/K197E/K199E/R290E (human) (UniProt P08709)
[8] = biological target: FVIIa variant CB614 D196W/K197L (human) (UniProt P08709)
[9] = biological target: FVIIa variant CB562 K199D (human) (UniProt P08709)
[10] = biological target: FVIIa variant CB595 K197I (human) (UniProt P08709)
[11] = biological target: FVIIa variant CB700 R290M (human) (UniProt P08709)
[12] = biological target: FVIIa variant CB560 K197L (human) (UniProt P08709)
[13] = biological target: FVIIa variant CB612 D196F/K197L (human) (UniProt P08709)
[14] = biological target: FVIIa variant CB586 D196R/K197E/K199E (human) (UniProt P08709)
[15] = biological target: FVIIa variant CB692 K197E/G237V/M298Q/K341Q (human) (UniProt P08709)
[16] = biological target: FVIIa variant CB734 K341M (human) (UniProt P08709)
[17] = biological target: FVIIa variant CB638 K197L/K341Q (human) (UniProt P08709)
[18] = biological target: FVIIa variant CB699 R290K (human) (UniProt P08709)
[19] = biological target: FVIIa variant CB698 R290Q (human) (UniProt P08709)
[20] = biological target: FVIIa variant CB615 D196F/K197E (human) (UniProt P08709)
[21] = biological target: FVIIa variant CB617 D196V/K197E (human) (UniProt P08709)
[22] = biological target: FVIIa variant CB554 D196K (human) (UniProt P08709)
[23] = biological target: FVIIa variant CB589 D196R/K197M/K199E (human) (UniProt P08709)
[24] = biological target: FVIIa variant CB693 K197E/K199E/G237V/M298Q/K341Q (human) (UniProt P08709)
[25] = biological target: FVIIa variant CB596 K197V (human) (UniProt P08709)
[26] = biological target: FVIIa variant CB691 K197E/K199E/K341Q (human) (UniProt P08709)
[27] = biological target: FVIIa variant CB590 D196R/K197M/K199E/R290E (human) (UniProt P08709)
[28] = biological target: FVIIa variant CB735 K341D (human) (UniProt P08709)
[29] = biological target: FVIIa variant CB603 D196L (human) (UniProt P08709)
[30] = biological target: FVIIa variant CB579 D196R/R290E (human) (UniProt P08709)
[31] = biological target: FVIIa variant CB606 G237T (human) (UniProt P08709)
[32] = biological target: FVIIa variant CB604 D196I (human) (UniProt P08709)
[33] = biological target: FVIIa variant CB569 K341R (human) (UniProt P08709)
[34] = biological target: FVIIa variant CB670 G237V/K341Q (human) (UniProt P08709)
[35] = biological target: FVIIa variant CB565 T239A (human) (UniProt P08709)
[36] = biological target: FVIIa variant CB561 K197Y (human) (UniProt P08709)
[37] = biological target: FVIIa variant CB605 G237W (human) (UniProt P08709)
[38] = biological target: FVIIa variant CB733 K341N (human) (UniProt P08709)

Human Recombinant TFPI (R&D Systems) (from UniProt P10646 29-282)
TFPI fold resistance (fold vs wild-type FVIIa) [1]: < 0.3
IC50 of TFPI inhibition of FVIIa/TF [2]: 0.035 µM
TFPI fold resistance (fold vs wild-type FVIIa) [2]: 0.5
pIC50 of TFPI inhibition of FVIIa/TF [2]: 7.5
IC50 of TFPI inhibition of FVIIa/TF [3]: 0.032 µM
TFPI fold resistance (fold vs wild-type FVIIa) [3]: 0.4
pIC50 of TFPI inhibition of FVIIa/TF [3]: 7.5
IC50 of TFPI inhibition of FVIIa/TF [4]: 0.22 µM
TFPI fold resistance (fold vs wild-type FVIIa) [4]: 3
pIC50 of TFPI inhibition of FVIIa/TF [4]: 6.7
TFPI fold resistance (fold vs wild-type FVIIa) [5]: < 0.3
TFPI fold resistance (fold vs wild-type FVIIa) [6]: 1.7
IC50 of TFPI inhibition of FVIIa/TF [7]: 0.028 µM
TFPI fold resistance (fold vs wild-type FVIIa) [7]: 0.4
pIC50 of TFPI inhibition of FVIIa/TF [7]: 7.6
TFPI fold resistance (fold vs wild-type FVIIa) [8]: < 0.3
IC50 of TFPI inhibition of FVIIa/TF [9]: 0.063 µM
TFPI fold resistance (fold vs wild-type FVIIa) [9]: 0.9
pIC50 of TFPI inhibition of FVIIa/TF [9]: 7.2
TFPI fold resistance (fold vs wild-type FVIIa) [10]: 0.8
TFPI fold resistance (fold vs wild-type FVIIa) [11]: 1
IC50 of TFPI inhibition of FVIIa/TF [12]: 1.1 µM
TFPI fold resistance (fold vs wild-type FVIIa) [12]: 16
pIC50 of TFPI inhibition of FVIIa/TF [12]: 5.9
TFPI fold resistance (fold vs wild-type FVIIa) [13]: < 0.3
IC50 of TFPI inhibition of FVIIa/TF [14]: 0.013 µM
TFPI fold resistance (fold vs wild-type FVIIa) [14]: < 0.3
pIC50 of TFPI inhibition of FVIIa/TF [14]: 7.9
TFPI fold resistance (fold vs wild-type FVIIa) [15]: 15.2
TFPI fold resistance (fold vs wild-type FVIIa) [16]: 4.4
TFPI fold resistance (fold vs wild-type FVIIa) [17]: 39
TFPI fold resistance (fold vs wild-type FVIIa) [18]: 0.6
TFPI fold resistance (fold vs wild-type FVIIa) [19]: 1.2
TFPI fold resistance (fold vs wild-type FVIIa) [20]: < 0.3
TFPI fold resistance (fold vs wild-type FVIIa) [21]: < 0.3
IC50 of TFPI inhibition of FVIIa/TF [22]: 0.045 µM
TFPI fold resistance (fold vs wild-type FVIIa) [22]: 0.6
pIC50 of TFPI inhibition of FVIIa/TF [22]: 7.4
IC50 of TFPI inhibition of FVIIa/TF [23]: 0.044 µM
TFPI fold resistance (fold vs wild-type FVIIa) [23]: 0.6
pIC50 of TFPI inhibition of FVIIa/TF [23]: 7.4
TFPI fold resistance (fold vs wild-type FVIIa) [24]: 22.1
TFPI fold resistance (fold vs wild-type FVIIa) [25]: 0.6
TFPI fold resistance (fold vs wild-type FVIIa) [26]: 34.3
IC50 of TFPI inhibition of FVIIa/TF [27]: 0.066 µM
TFPI fold resistance (fold vs wild-type FVIIa) [27]: 0.9
pIC50 of TFPI inhibition of FVIIa/TF [27]: 7.2
TFPI fold resistance (fold vs wild-type FVIIa) [28]: 148
TFPI fold resistance (fold vs wild-type FVIIa) [29]: < 0.3
IC50 of TFPI inhibition of FVIIa/TF [30]: 0.028 µM
TFPI fold resistance (fold vs wild-type FVIIa) [30]: 0.4
pIC50 of TFPI inhibition of FVIIa/TF [30]: 7.6
TFPI fold resistance (fold vs wild-type FVIIa) [31]: 0.3
TFPI fold resistance (fold vs wild-type FVIIa) [32]: < 0.3
IC50 of TFPI inhibition of FVIIa/TF [33]: 0.3 µM
TFPI fold resistance (fold vs wild-type FVIIa) [33]: 4.1
pIC50 of TFPI inhibition of FVIIa/TF [33]: 6.5
TFPI fold resistance (fold vs wild-type FVIIa) [34]: 14.1
IC50 of TFPI inhibition of FVIIa/TF [35]: 0.32 µM
TFPI fold resistance (fold vs wild-type FVIIa) [35]: 4.5
pIC50 of TFPI inhibition of FVIIa/TF [35]: 6.5
IC50 of TFPI inhibition of FVIIa/TF [36]: 0.11 µM
TFPI fold resistance (fold vs wild-type FVIIa) [36]: 1.5
pIC50 of TFPI inhibition of FVIIa/TF [36]: 7
TFPI fold resistance (fold vs wild-type FVIIa) [37]: < 0.3
TFPI fold resistance (fold vs wild-type FVIIa) [38]: 10.7
